Measurements published in patent publication US20020068273A1 (published 2002).
Where no end group is shown, it is not given here.

Tests used:
biotin-Vpr52-96 (HIV-1) = biotin-Vpr52-96 (HIV-1) (UniProt P69726); assay: SPR, Langmuir isotherm, ANT104-116 on biotinylated Vpr52-96
[1] = molecular target: T1, adenine nucleotide translocator (ANT), purified native protein (rat, UniProt Q05962 2-298); assay: SPR, ANT over immobilized Vpr52-96
T1 construct: mature; Used detergent-solubilized (SPR), reconstituted in liposomes or planar bilayers, or inside mitochondria (pull-down); also called adenine nucleotide translocase; ADP/ATP carrier
T1 sequence: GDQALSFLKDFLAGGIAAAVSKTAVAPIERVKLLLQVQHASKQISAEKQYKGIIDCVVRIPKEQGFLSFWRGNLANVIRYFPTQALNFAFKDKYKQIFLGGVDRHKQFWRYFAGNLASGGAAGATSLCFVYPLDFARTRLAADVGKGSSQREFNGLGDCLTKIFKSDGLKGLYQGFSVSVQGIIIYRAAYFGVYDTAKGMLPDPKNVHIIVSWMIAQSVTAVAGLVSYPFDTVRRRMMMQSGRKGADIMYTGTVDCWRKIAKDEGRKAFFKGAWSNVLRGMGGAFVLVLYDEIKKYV

[2] = molecular target: T1, adenine nucleotide translocator (ANT), …; assay: not stated (summary of the inventors' findings)

ANT-2-derived peptide ANT104-116 was tested, and the Kd (biotin-Vpr52-96 (HIV-1)) was 35000 nM.

B1: biotin-Vpr52-96 (peptide)
peptide: DTWAGVEAIIRILQQLLFIHFRIGCRHSRIGVTRQRRARNGASRS
modifications: also: biotin, position not given here
notes: range 52-96; Synthetic biotinylated peptide, immobilized for SPR and used as bait in the avidin-agarose pull-down; also called biotinylated Vpr52-96; immobilized Vpr C-terminal moiety
B1 was tested, and the Kd [1] was 9.7 nM.

B2: Vpr protein of HIV-1 (14 Kd; 96 aa) (other)
chain: MEQAPEDQGPQREPHNEWTLELLEELKNEAVRHFPRIWLHGLGQHIYETYGDTWAGVEAIIRILQQLLFIHFRIGCRHSRIGVTRQRRARNGASRS
notes: also called HIV-1 Viral protein R
Molecule B2 has a Kd [2] of 1 nM.
